In the Human Domainome abundance scans (Beltran et al. 2025) one finds abundance fitness data, which are given here for 46 substances.

± gives the uncertainty stated by the source.

The nature of the data set: abundance fitness (aPCA) (normalised: wild type 0, dead -1); higher = more abundant; growth selection in yeast, the domain comes from the species named. The note with it: Homo sapiens.
The substance “Lipoamide acyltransferase component of branched-chain alpha-keto acid dehydrogenase complex, mitochondrial L188D, P11182” gave an abundance fitness of -0.535 ± 0.071. Consider “Lipoamide acyltransferase component of branched-chain alpha-keto acid dehydrogenase complex, mitochondrial L188E, P11182”, for which the abundance fitness was -0.391 ± 0.048. With “Lipoamide acyltransferase component of branched-chain alpha-keto acid dehydrogenase complex, mitochondrial L188F, P11182”, the abundance fitness came out at 0.116 ± 0.39. Regarding “Lipoamide acyltransferase component of branched-chain alpha-keto acid dehydrogenase complex, mitochondrial L188G, P11182”, the abundance fitness is -0.544 ± 0.036. “Lipoamide acyltransferase component of branched-chain alpha-keto acid dehydrogenase complex, mitochondrial L188H, P11182” yielded an abundance fitness of -0.368 ± 0.094.

Consider “Lipoamide acyltransferase component of branched-chain alpha-keto acid dehydrogenase complex, mitochondrial L188K, P11182”, for which the abundance fitness is -0.578 ± 0.052. “Lipoamide acyltransferase component of branched-chain alpha-keto acid dehydrogenase complex, mitochondrial L188M, P11182” had an abundance fitness of -0.248 ± 0.054. With “Lipoamide acyltransferase component of branched-chain alpha-keto acid dehydrogenase complex, mitochondrial L188N, P11182”, the abundance fitness is -0.567 ± 0.095. As for “Lipoamide acyltransferase component of branched-chain alpha-keto acid dehydrogenase complex, mitochondrial L188P, P11182”, the abundance fitness was -0.412 ± 0.047.

“Lipoamide acyltransferase component of branched-chain alpha-keto acid dehydrogenase complex, mitochondrial L188R, P11182” returned an abundance fitness of -0.647 ± 0.04. The same measure for “Lipoamide acyltransferase component of branched-chain alpha-keto acid dehydrogenase complex, mitochondrial L188S, P11182”: -0.656 ± 0.059; for “Lipoamide acyltransferase component of branched-chain alpha-keto acid dehydrogenase complex, mitochondrial L188T, P11182”: -0.519 ± 0.07; for “Lipoamide acyltransferase component of branched-chain alpha-keto acid dehydrogenase complex, mitochondrial L188W, P11182”: -0.513 ± 0.048. The same measure for “Lipoamide acyltransferase component of branched-chain alpha-keto acid dehydrogenase complex, mitochondrial L201A, P11182”: -0.315 ± 0.041; for “Lipoamide acyltransferase component of branched-chain alpha-keto acid dehydrogenase complex, mitochondrial L201C, P11182”: -0.243 ± 0.064; for “Lipoamide acyltransferase component of branched-chain alpha-keto acid dehydrogenase complex, mitochondrial L201D, P11182”: -0.374 ± 0.14.

For the substance “Lipoamide acyltransferase component of branched-chain alpha-keto acid dehydrogenase complex, mitochondrial L201E, P11182”, the abundance fitness is -0.038 ± 0.042. Turning to “Lipoamide acyltransferase component of branched-chain alpha-keto acid dehydrogenase complex, mitochondrial L201F, P11182”, the abundance fitness is -0.319 ± 0.09. Next, “Lipoamide acyltransferase component of branched-chain alpha-keto acid dehydrogenase complex, mitochondrial L201G, P11182”: -0.275 ± 0.034; “Lipoamide acyltransferase component of branched-chain alpha-keto acid dehydrogenase complex, mitochondrial L201H, P11182”: -0.32 ± 0.07; “Lipoamide acyltransferase component of branched-chain alpha-keto acid dehydrogenase complex, mitochondrial L201K, P11182”: -0.256 ± 0.056.

In turn, “Lipoamide acyltransferase component of branched-chain alpha-keto acid dehydrogenase complex, mitochondrial L201M, P11182” registered an abundance fitness of -0.141 ± 0.069.

As to “Lipoamide acyltransferase component of branched-chain alpha-keto acid dehydrogenase complex, mitochondrial L201N, P11182”, the abundance fitness is -0.119 ± 0.093. Substance “Lipoamide acyltransferase component of branched-chain alpha-keto acid dehydrogenase complex, mitochondrial L201P, P11182” displayed an abundance fitness of -0.602 ± 0.062. “Lipoamide acyltransferase component of branched-chain alpha-keto acid dehydrogenase complex, mitochondrial L201Q, P11182” came in with an abundance fitness of -0.11 ± 0.049. The same measure for “Lipoamide acyltransferase component of branched-chain alpha-keto acid dehydrogenase complex, mitochondrial L201R, P11182”: -0.209 ± 0.034; for “Lipoamide acyltransferase component of branched-chain alpha-keto acid dehydrogenase complex, mitochondrial L201S, P11182”: -0.171 ± 0.061.

With “Lipoamide acyltransferase component of branched-chain alpha-keto acid dehydrogenase complex, mitochondrial L201T, P11182”, the abundance fitness was found to be 0.035 ± 0.054.

In the case of “Lipoamide acyltransferase component of branched-chain alpha-keto acid dehydrogenase complex, mitochondrial L201V, P11182”, the abundance fitness is -0.096 ± 0.037. “Lipoamide acyltransferase component of branched-chain alpha-keto acid dehydrogenase complex, mitochondrial L201W, P11182” displayed an abundance fitness of -0.683 ± 0.052.

In the case of “Lipoamide acyltransferase component of branched-chain alpha-keto acid dehydrogenase complex, mitochondrial L206A, P11182”, the abundance fitness is -0.08 ± 0.036. Substance “Lipoamide acyltransferase component of branched-chain alpha-keto acid dehydrogenase complex, mitochondrial L206C, P11182” displayed an abundance fitness of -0.555 ± 0.34. Next, “Lipoamide acyltransferase component of branched-chain alpha-keto acid dehydrogenase complex, mitochondrial L206D, P11182”: 0.01 ± 0.065; “Lipoamide acyltransferase component of branched-chain alpha-keto acid dehydrogenase complex, mitochondrial L206E, P11182”: 0.007 ± 0.06. As for “Lipoamide acyltransferase component of branched-chain alpha-keto acid dehydrogenase complex, mitochondrial L206F, P11182”, the abundance fitness is -0.353 ± 0.36. Next, “Lipoamide acyltransferase component of branched-chain alpha-keto acid dehydrogenase complex, mitochondrial L206G, P11182”: -0.149 ± 0.033; “Lipoamide acyltransferase component of branched-chain alpha-keto acid dehydrogenase complex, mitochondrial L206K, P11182”: -0.113 ± 0.065; “Lipoamide acyltransferase component of branched-chain alpha-keto acid dehydrogenase complex, mitochondrial L206N, P11182”: -0.052 ± 0.066. Next, “Lipoamide acyltransferase component of branched-chain alpha-keto acid dehydrogenase complex, mitochondrial L206P, P11182”: -0.291 ± 0.063; “Lipoamide acyltransferase component of branched-chain alpha-keto acid dehydrogenase complex, mitochondrial L206Q, P11182”: -0.028 ± 0.051. The same measure for “Lipoamide acyltransferase component of branched-chain alpha-keto acid dehydrogenase complex, mitochondrial L206R, P11182”: -0.071 ± 0.035; for “Lipoamide acyltransferase component of branched-chain alpha-keto acid dehydrogenase complex, mitochondrial L206S, P11182”: -0.072 ± 0.049.

In turn, “Lipoamide acyltransferase component of branched-chain alpha-keto acid dehydrogenase complex, mitochondrial L206V, P11182” yielded an abundance fitness of -0.026 ± 0.043.

“Lipoamide acyltransferase component of branched-chain alpha-keto acid dehydrogenase complex, mitochondrial L206W, P11182” gave an abundance fitness of -0.135 ± 0.052. Next, “Lipoamide acyltransferase component of branched-chain alpha-keto acid dehydrogenase complex, mitochondrial L209A, P11182”: 0.037 ± 0.043. Next, “Lipoamide acyltransferase component of branched-chain alpha-keto acid dehydrogenase complex, mitochondrial L209C, P11182”: -0.052 ± 0.057.
